Broadly, the Kd is the free concentration of one partner at which half of the binding sites on the other are occupied at equilibrium, for simple one-to-one binding. A high value points to a looser complex.

The target of assay [1] is amyloid-β 40 (Aβ40).
Assay [2] has as its target fluorophore-conjugated Aβ40 (HF488Aβ40). Description: other fluorescence titration; fluorescence quenching of fluorophore-conjugated Aβ40 (HF488Aβ40) by ZF2–4; conditions in Figure S9.
Assay [3] addresses uniformly 15N-labeled Aβ40. Description: NMR titration; 2D 1H–15N SOFAST–HMQC of 20 µM 15N-labeled Aβ40 with 200 µM ZF2–4 or ZFx′; 20 mM HEPES, pH 7.4, 1 mM DTT, 10% v/v D2O; 10°C.
The target in assay [4] is amyloid-β 40 (Aβ40). Description: ITC; ZF2–4 (300 µM) titrated into monomeric Aβ40 (20 µM); one-set-of-sites model; 20 mM HEPES, pH 7.4, 1 mM DTT; 10°C; heat of dilution of ZF2–4 subtracted. (In general: In ITC the heat of successive injections is recorded.)

For “ZF2–4 (tandem array of three Cys2His2-type zinc finger modules of PARIS) (domain or fragment)”, the decrease in the size of Aβ40 liquid droplets (LLPS, confocal microscopy) with equimolar ZF2–4 (100 µM each) relative to Aβ40 alone in assay [1] worked out at 93.7%. In assay [2], this substance registered a Kd of 320 nM and a stoichiometry N (Aβ40 per ZF2–4) of 1.5. In assay [3], this substance yielded an average decrease in NMR signal intensity of 15N-labeled Aβ40 of 41.9%. In assay [4], this substance displayed a Kd of 1960 nM, a dH of -1.31 kcal/mol and a stoichiometry N (Aβ40 per ZF2–4) of 1.7.

These data come from PMC13624870.
